From PMC128837 (BMC Biochemistry, 2002) come the findings set out here.

For the test, the target named is T1, HA-Pop1p/His-Myc-Pop2p complexes (S. pombe, UniProt P87060 1-775; O14170 1-703).
T1 sequence 1: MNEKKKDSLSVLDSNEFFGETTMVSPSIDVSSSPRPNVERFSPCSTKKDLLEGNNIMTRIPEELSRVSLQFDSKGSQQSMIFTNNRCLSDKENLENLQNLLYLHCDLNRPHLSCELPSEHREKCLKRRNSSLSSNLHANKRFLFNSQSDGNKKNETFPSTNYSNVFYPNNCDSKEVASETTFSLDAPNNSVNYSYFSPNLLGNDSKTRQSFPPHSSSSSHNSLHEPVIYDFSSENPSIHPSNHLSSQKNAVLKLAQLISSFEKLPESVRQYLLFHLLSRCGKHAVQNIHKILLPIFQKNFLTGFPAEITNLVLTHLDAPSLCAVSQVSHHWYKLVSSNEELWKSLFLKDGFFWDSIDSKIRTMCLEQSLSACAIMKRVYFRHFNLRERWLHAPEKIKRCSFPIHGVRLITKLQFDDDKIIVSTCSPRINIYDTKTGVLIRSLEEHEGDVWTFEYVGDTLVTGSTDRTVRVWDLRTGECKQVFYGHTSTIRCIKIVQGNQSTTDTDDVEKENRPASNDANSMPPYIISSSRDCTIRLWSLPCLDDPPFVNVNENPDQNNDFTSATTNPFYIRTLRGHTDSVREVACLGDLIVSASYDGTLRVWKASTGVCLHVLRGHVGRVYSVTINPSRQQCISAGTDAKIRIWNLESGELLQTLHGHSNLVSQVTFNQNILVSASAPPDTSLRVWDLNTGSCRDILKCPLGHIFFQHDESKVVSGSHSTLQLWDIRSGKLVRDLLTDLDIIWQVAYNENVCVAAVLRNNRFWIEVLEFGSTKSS
T1 sequence 2: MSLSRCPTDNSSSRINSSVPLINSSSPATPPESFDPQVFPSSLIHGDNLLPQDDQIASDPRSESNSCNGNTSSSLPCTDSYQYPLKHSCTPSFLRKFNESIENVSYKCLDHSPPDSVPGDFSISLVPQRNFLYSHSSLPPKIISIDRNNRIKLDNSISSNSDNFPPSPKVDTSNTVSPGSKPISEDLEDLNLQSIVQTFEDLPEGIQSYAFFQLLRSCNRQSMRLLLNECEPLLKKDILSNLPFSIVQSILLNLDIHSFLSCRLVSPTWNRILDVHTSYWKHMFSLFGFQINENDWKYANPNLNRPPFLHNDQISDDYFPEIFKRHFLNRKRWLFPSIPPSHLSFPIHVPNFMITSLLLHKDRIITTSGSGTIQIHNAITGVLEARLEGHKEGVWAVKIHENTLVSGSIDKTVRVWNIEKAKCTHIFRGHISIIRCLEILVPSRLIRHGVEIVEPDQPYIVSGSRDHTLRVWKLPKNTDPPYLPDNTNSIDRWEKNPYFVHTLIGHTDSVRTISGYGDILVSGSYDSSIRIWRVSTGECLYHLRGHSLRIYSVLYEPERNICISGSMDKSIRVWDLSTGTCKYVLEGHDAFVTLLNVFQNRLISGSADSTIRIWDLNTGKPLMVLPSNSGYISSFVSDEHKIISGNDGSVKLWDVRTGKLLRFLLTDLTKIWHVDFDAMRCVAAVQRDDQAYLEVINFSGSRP
Nature of the test: pull-down.

B1: bacterially expressed, phosphorylated Rum1p (natural protein)
chain: MEPSTPPMRGLCTPSTPESPGSFKGVIDASLEGNSSIMIDEIPESDLPAPQVSTFPPTPAKTPKKQLLPNLMLQDRSNSLERCMEEDREHNPFLSSSDNQLLSRKKRKPTPPPSDGLYYVFRGKRIKKSFRPGTDLSTFKPKLLFADSAPSSSSDNPTSSVDLNDYSQIGILPPNLNSIGNKMFSLKSRVPSSSSGSFVAPPPQMRLPAYSSPQKSRSNTKDENRHNLLR
modifications: phosphorylated by Cdc2p/Cig1p complexes with radiolabeled ATP; residues not stated for this preparation
Take B1: the binding result was “binds”.
